Patent US20050037969A1 (ARBOR VITA, published 2005)
Ends that are not written are not given here. * marks the point of attachment. Biotin = O=C1N[C@H]2[C@H](CS[C@H]2CCCCC(=O)*)N1

Key:
Assay in all cases: A/G assays
[1] = target: T1, ConEn PDZ-GST fusion protein (Homo sapiens (Human), UniProt Q969H4 193-287)
T1 construct: The label ConEn is not explained in the excerpts
T1 sequence: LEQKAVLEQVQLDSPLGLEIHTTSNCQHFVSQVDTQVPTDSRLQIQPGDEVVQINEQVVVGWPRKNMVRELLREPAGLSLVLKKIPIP

[2] = target: T2, K559 PDZ-GST fusion protein (Homo sapiens (Human), UniProt Q9Y6V0 4489-4593)
T2 construct: Order of GST and PDZ part and limits not seen in the excerpts
T2 sequence: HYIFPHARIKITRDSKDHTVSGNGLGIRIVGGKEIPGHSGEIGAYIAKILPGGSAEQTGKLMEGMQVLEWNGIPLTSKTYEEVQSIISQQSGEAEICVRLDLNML

[3] = target: T3, GST-TAX-IP43 PDZ domain fusion protein (human, UniProt Q13884 109-180)
T3 construct: also called TAX43; not shown: glutathione S-transferase encoded by vector pGEX-3X (Pharmacia)
T3 sequence: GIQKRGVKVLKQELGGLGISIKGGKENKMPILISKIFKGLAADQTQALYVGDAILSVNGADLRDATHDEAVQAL

[4] = target: T4, GST-mouse syntenin fusion protein (Mus musculus, UniProt O08992 108-286)
T4 construct: also called Mus musculus Syntenin; not shown: glutathione S-transferase encoded by vector pGEX-3X (Pharmacia)
T4 chain: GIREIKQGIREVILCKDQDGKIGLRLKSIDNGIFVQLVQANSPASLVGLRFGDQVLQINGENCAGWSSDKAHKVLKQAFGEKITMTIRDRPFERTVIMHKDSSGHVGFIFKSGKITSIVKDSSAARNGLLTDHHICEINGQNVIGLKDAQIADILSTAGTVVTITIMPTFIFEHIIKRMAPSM

[5] = target: T5, GST-TAX-IP40 PDZ domain fusion protein (human, UniProt Q6B4M5 150-252 (rat entry))
T5 construct: also called TAX40; not shown: glutathione S-transferase encoded by vector pGEX-3X (Pharmacia)
T5 sequence: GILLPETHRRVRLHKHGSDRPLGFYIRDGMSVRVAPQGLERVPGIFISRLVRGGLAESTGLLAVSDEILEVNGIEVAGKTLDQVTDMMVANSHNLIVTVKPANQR

[6] = target: T6, GST-PDZK1 fusion protein (PDZ domains 2-4) (Homo sapiens, UniProt Q5T2W1 134-457)
T6 construct: not shown: glutathione S-transferase encoded by vector pGEX-3X (Pharmacia)
T6 sequence: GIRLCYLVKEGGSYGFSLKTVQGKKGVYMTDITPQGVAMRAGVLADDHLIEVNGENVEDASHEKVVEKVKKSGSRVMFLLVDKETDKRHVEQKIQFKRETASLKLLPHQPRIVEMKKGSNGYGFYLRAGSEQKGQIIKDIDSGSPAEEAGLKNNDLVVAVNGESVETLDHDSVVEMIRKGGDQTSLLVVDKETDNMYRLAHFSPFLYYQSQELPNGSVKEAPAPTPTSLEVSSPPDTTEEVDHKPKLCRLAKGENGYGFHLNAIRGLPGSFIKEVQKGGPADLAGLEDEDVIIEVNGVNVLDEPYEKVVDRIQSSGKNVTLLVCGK

[7] = target: T7, GST-MPP1 PDZ domain fusion protein (Homo sapiens (Human), UniProt Q00013 67-152)
T7 construct: also called p55; 55 Kd erythrocyte membrane protein; not shown: glutathione S-transferase encoded by vector pGEX-3X (Pharmacia)
T7 sequence: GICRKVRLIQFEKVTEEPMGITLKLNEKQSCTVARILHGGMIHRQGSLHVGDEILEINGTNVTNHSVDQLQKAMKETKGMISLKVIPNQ

[8] = target: T8, NOS1 PDZ-GST fusion protein (Homo sapiens (Human), UniProt P29475 11-100)
T8 construct: Order of GST and PDZ part and limits not seen in the excerpts
T8 sequence (P29475 11-100 limits assumed): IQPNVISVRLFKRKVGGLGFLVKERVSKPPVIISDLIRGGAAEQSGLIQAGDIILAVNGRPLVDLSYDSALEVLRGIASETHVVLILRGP

[9] = target: T9, TAX-IP2L PDZ-GST fusion protein (Homo sapiens (Human), UniProt Q8TF64 107-197)
T9 construct: Order of GST and PDZ part and limits not seen in the excerpts
T9 sequence: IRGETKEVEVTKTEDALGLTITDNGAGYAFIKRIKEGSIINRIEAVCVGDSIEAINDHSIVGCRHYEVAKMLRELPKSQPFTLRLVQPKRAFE

[10] = target: T10, GST-CASK PDZ domain fusion protein (Homo sapiens, UniProt O14936 486-575)
T10 construct: also called Homo sapiens CASK protein
T10 sequence: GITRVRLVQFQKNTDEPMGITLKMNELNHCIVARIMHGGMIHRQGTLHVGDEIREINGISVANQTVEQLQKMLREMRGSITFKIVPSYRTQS

[11] = target: T11, X11β PDZ-GST fusion protein (Rattus norvegicus (Rat), UniProt O35431 560-745)
T11 construct: Order of GST and PDZ part and limits not seen in the excerpts
T11 chain: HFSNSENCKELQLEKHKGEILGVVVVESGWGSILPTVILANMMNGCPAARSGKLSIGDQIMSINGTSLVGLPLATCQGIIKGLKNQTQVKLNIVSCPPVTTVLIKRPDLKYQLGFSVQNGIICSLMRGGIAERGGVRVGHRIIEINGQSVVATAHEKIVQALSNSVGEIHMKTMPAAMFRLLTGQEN

[12] = target: T12, GST-PTN-4 PDZ domain fusion protein (Homo sapiens (Human), UniProt P29074 517-605)
T12 construct: also called protein-tyrosine phosphatase meg1; not shown: glutathione S-transferase encoded by vector pGEX-3X (Pharmacia)
T12 sequence: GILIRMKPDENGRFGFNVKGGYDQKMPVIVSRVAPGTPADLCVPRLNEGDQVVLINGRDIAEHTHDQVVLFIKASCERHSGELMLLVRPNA

[13] = target: T13, GST-TAX-IP2 PDZ domain fusion protein (human, UniProt O14908 129-216)
T13 construct: also called TAX-1P2; TAX2; not shown: glutathione S-transferase encoded by vector pGEX-3X (Pharmacia)
T13 chain: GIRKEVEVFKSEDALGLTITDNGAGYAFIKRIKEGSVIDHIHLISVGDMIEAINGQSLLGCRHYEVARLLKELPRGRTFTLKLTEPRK

[14] = target: T14, KIAA0807 (PDZ domain)-GST fusion protein (human, UniProt Q6P0Q8 1104-1192)
T14 construct: also called K807; KIAA807; not shown: glutathione S-transferase encoded by vector pGEX-3X (Pharmacia)
T14 sequence: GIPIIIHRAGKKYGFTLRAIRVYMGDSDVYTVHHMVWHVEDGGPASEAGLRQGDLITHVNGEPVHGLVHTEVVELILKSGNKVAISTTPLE

Measured: binding result

B1: CC CKR-3 C-terminal peptide AA43L (peptide)
peptide: Biotin-LERTSSVSPSTAEPELSIVF
notes: Only the last four residues are seen in the excerpts
no binding: all assays above

Biotin-ENLAPVTTFGKTNGYIA (also called CD148 (DEP-1)) [CD148 C-terminal peptide AA19L, biotinylated]
no binding: all assays above

B2: CD114 (G-CSFR) C-terminal peptide AA27L (peptide)
peptide: Biotin-LNFPLLQGIRVHGMEALGSF
notes: as for B1
no binding: all assays above

B3: Mannose receptor C-terminal peptide AA31L (peptide)
peptide: Biotin-GTSDMKDLVGNIEQNEHSVI
notes: as for B1
no binding: all assays above

Biotin-ISKATPALPTVSISSSAEV (also called AA1L-R) [Clasp-1 C-terminal peptide AA1L, biotinylated]
no binding: all assays above

Biotin-CAISGTSSDRGYGSPRYAEV (also called AA3L-V) [Clasp-4 C-terminal peptide AA3L, biotinylated]
no binding: all assays above
